Among the data in PMC2175090 are Kd values, retold here.

What is called Kd is the concentration at which binding is half-saturated. A low value points to higher affinity.

This experiment addresses polymerized MTs purified from the bovine brain (bovine) (UniProt Q6B856). In words: co-sedimentation.

Turning to “GST-M1 fusion protein encompassing ACF7's M1 domain (domain or fragment)”, the dissociation constant (Kd) is 6 µM. In other words, the single-digit micromolar range.
